Laboratory results from article PMC2673055 (The Journal of biological chemistry, 2007).
Where two headings read alike, the source gives them in different places.

Columns and labels:
Test in all cases: SPR
[1] = molecular target: recombinant matrilin-3 A-domain (human) (UniProt O15232)
[2] = molecular target: T1, full-length type IX collagen (human, UniProt P20849 24-921; Q14055 24-689; Q14050 26-684)
[3] = molecular target: T1, full-length type IX collagen; remark: listed apart in the source

Which Kd [1] does the source give for “vitreous form of human type IX collagen (from UniProt Q14055 24-689; Q14050 26-684) (complex)” here?
The Kd was 3.25 nM.

B1: recombinant matrilin-3 A-domain (domain or fragment, human, UniProt O15232 76-263, looked up)
chain: VCKSRPLDLVFIIDSSRSVRPLEFTKVKTFVSRIIDTLDIGPADTRVAVVNYASTVKIEFQLQAYTDKQSLKQAVGRITPLSTGTMSGLAIQTAMDEAFTVEAGAREPSSNIPKVAIIVTDGRPQDQVNEVAARAQASGIELYAVGVDRADMASLKMMASEPLEEHVFYVETYGVIEKLSSRFQETFC
With B1 as the molecule, how does the Kd [2] read?
The Kd was 1.37 nM.

B2: full-length matrilin-3 (natural protein, UniProt O15232 29-486, looked up)
chain: DPVARPGFRRLETRGPGGSPGRRPSPAAPDGAPASGTSEPGRARGAGVCKSRPLDLVFIIDSSRSVRPLEFTKVKTFVSRIIDTLDIGPADTRVAVVNYASTVKIEFQLQAYTDKQSLKQAVGRITPLSTGTMSGLAIQTAMDEAFTVEAGAREPSSNIPKVAIIVTDGRPQDQVNEVAARAQASGIELYAVGVDRADMASLKMMASEPLEEHVFYVETYGVIEKLSSRFQETFCALDPCVLGTHQCQHVCISDGEGKHHCECSQGYTLNADKKTCSALDRCALNTHGCEHICVNDRSGSYHCECYEGYTLNEDRKTCSAQDKCALGTHGCQHICVNDRTGSHHCECYEGYTLNADKKTCSVRDKCALGSHGCQHICVSDGAASYHCDCYPGYTLNEDKKTCSATEEARRLVSTEDACGCEATLAFQDKVSSYLQRLNTKLDDILEKLKINEYGQIHR
Which Kd [3] does the source give for B2 here?
Its Kd is 1.5 nM.
